Experimental data published in patent US9950027.
Positions count from the first letter of the chain named. Values belong to the binder of their own block, whether it stands above or below them. Side-chain parts run from the residue outwards. [ ]: non-standard residue; d: D form.

Assays:
Test in all cases: cell-based or functional assay
[1] = target: human GLP-1 receptor (human) (UniProt P43220)
[2] = target: human GLP-2 receptor (human) (UniProt O95838)
[3] = target: recombinant human type 2 Formyl peptide receptor (FPR2) (human) (UniProt P25090)
Sequence of recombinant human type 2 Formyl peptide receptor (FPR2) (human) (P25090 whole entry): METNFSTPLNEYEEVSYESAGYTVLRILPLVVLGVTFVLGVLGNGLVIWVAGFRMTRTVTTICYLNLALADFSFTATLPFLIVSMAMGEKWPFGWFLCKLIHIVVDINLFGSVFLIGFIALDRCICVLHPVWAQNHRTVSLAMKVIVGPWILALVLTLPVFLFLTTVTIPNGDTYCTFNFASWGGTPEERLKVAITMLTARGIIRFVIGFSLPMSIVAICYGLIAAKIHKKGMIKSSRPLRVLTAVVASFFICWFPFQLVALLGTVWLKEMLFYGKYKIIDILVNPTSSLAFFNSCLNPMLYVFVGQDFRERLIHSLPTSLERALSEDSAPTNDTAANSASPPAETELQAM

Sequence of human GLP-2 receptor (human) (O95838 whole entry): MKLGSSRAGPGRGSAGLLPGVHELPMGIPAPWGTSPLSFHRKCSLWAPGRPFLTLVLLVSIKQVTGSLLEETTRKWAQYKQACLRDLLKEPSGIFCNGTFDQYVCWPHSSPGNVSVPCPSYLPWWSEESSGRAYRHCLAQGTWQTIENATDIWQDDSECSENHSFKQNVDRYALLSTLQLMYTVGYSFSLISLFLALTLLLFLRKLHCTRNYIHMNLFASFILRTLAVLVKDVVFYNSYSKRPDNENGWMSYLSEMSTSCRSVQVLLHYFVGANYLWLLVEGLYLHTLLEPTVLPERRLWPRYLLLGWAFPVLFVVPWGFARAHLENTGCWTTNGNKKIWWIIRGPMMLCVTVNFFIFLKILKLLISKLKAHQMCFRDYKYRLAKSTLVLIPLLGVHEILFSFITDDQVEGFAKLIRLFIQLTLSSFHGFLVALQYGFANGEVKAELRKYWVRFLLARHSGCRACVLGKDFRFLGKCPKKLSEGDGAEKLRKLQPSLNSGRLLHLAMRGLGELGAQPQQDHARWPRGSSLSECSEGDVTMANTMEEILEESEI
Sequence of human GLP-1 receptor (human) (P43220 24-463): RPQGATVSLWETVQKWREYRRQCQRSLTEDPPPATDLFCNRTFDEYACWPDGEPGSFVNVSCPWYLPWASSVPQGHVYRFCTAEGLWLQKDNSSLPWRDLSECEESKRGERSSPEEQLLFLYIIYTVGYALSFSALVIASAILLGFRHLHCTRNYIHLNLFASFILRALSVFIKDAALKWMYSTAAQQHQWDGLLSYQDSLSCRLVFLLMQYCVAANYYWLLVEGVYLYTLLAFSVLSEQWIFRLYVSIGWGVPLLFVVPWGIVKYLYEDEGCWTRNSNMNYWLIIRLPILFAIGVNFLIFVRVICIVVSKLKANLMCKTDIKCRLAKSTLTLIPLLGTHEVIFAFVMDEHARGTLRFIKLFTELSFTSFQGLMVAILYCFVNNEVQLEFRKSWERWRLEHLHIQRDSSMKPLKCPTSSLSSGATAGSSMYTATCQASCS

Binder: Ac-HGEGTFTSDVSSYLEGQAAKEFIAWLVKGRGK([Lys-Lys-Ac])-NH2 [Analogue 2 (Example 4, BAP-modified GLP-1 analogue): …]
EC50 (nM), cAMP production (HTRF) [1]: 0.04 nM | Max efficacy in % of control peptide (cAMP production, HTRF) (% of control peptide) [1]: 102

B1: Analogue 3 (Example 4, BAP-modified GLP-2 analogue): … (peptide)
peptide: HADGSFSDEMNTILDNLAARDFINWLIQTKITDK
modifications: N-terminal acetyl; Lys-Lys-Ac attached to the epsilon-amino group of the C-terminal Lys34; C-terminal amide
EC50 (nM), cAMP production (HTRF) [2]: 3.4 nM | Max efficacy in % of control peptide (cAMP production, HTRF) (% of control peptide) [2]: 101

Binder: Ac-AMVSEFLKQ[dA]WFIENEEQEYVQTVKKK([Lys-Ac])-NH2 [Analogue 6 (Example 4, BAP-modified AnxA1 N-terminal fragment): …]
agonist activity, % of the max response of Trp-Lys-Tyr-Met-Val-Met (SEQ ID NO: 114) [3]: 33%

Next, values leading:

EC50 (nM), cAMP production (HTRF) [2]: 5.9 nM | Max efficacy in % of control peptide (cAMP production, HTRF) (% of control peptide) [2]: 102
B2: Analogue 4 (Example 4, BAP-modified GLP-2 analogue): … (peptide)
peptide: B1 peptide with A2G
modifications: N-terminal acetyl; Lys-Lys-Ac attached to the epsilon-amino group of the C-terminal Lys34; C-terminal amide

EC50 (nM), cAMP production (HTRF) [2]: 8.9 nM | Max efficacy in % of control peptide (cAMP production, HTRF) (% of control peptide) [2]: 95.1
B3: Analogue 5 (Example 4, BAP-modified GLP-2 analogue): … (peptide)
peptide: B1 peptide
modifications: N-terminal acetyl; D-Ala at position 2; Lys-Lys-Ac attached to the epsilon-amino group of the C-terminal Lys34; C-terminal amide
